± gives the standard deviation of the averaged measurements.

The test system of series [1] is VchCAST RNA-guided transposition machinery (E. coli BL21(DE3) host, lacZ target). The experiment in a line: relative integration efficiency (T-RL orientation) vs wild-type transposon end (log2 (normalized fold change)); transposon end mutated: left end; higher = more efficient transposition. The protocol: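 Pooled, barcoded VchCAST (Tn6677) mini-transposon donor libraries; each variable transposon-end sequence sits in a fixed pDonor mini-transposon context (10-bp barcode and cargo not included). Left- or right-end libraries were co-transformed with pEffector (TniQ-Cascade, TnsABC, lacZ crRNA, T7, 0.1 mM IPTG) into E. coli BL21(DE3) and grown 18 h at 37 C. T-LR and T-RL junction amplicons were sequenced; output/input barcode fold change was normalised to the mean of four wild-type barcodes and log2-transformed. Two biological replicates; zero-count/undetected variants carry floor values (-10 / -15), censored here. Barcode uncoupling by PCR recombination adds noise.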

Series [2] has the same test system. The experiment in a line: relative integration efficiency (T-RL orientation) vs wild-type transposon end (log2 (normalized fold change)); transposon end mutated: right end (5 bp flank + 75 bp right end); higher = more efficient transposition. In a few lines:
(§1)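 Relative integration efficiency is a fold change of output over input barcode abundance, normalised to reference barcodes and log-transformed. Input plasmids and genomic integration junctions were PCR-amplified and Illumina-sequenced from E. coli BL21(DE3) co-transformed with a T7-driven effector plasmid and pUC57 donor pools of 1549 left-end or 1849 right-end transposon variants. Plating was done with 0.1 mM IPTG at 37°C for 18 h, with two biological output replicates and four reference barcodes.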

For series [3] the test system is unchanged. As to the kind of experiment: relative integration efficiency (T-LR orientation) vs wild-type transposon end (log2 (normalized fold change)); transposon end mutated: right end (5 bp flank + 75 bp right end); higher = more efficient transposition. In a few lines: as §1

On to “AATGTTGTTGATGCAACCATAAAGTGATATTTAATAATTATTTATAATCAGCAACTTAACCACAAAACAACCATATCGGTCGCGAGACACCCCACCAACGCCTGGTCGCGGGGGTGTCCGATCTGATTTCAGCAAAACTACTGCAGTAAGAA”, for which the “relative integration efficiency (log2)” value in series [1] was -6.09 ± 0.98.

Turning to “AATGTTGTTGATGCAACCATAAAGTGATATTTATTGACGGCTAGCTCAGTCCTAGGTATAGTGCTAGCAACCATATATTGATATCTCACAAAACAACCATAAGTTGATATTTTTGTGAATCGAGTATTTCAGCAAAACTACTGCAGTAAGAA”, the “relative integration efficiency (log2)” value in series [1] is -6.66 ± 0.33.

Regarding “AATGTTGTTGATGCAACCATAAAGTGATATTTAATAATTATTTATAATCCAACCATATATTGATATCTCAGCAACTTAACCACAAAAACAAAACAACCATAAGTTGATATTTTTGTGAATCGAGTATTTCAGCAAAACTACTGCAGTAAGAA”, the “relative integration efficiency (log2)” value in series [1] was -5.59 ± 1.3.

As to “AATGTTGTTGATGCAACCATAAAGTGATATTTAATAATTATCAACCATATATTGATATCTCACAAAACAACCATAAGTTGATATTTTTGTGAATCGAGTATTTCAGCAAAACTACTGCAGTAAGAAAGTTACTTCGTGGTATGGGAGGATCA”, in series [1], the “relative integration efficiency (log2)” value is -7.99 ± 0.76. As for “AATGTTGTTGATGACCAACGCCTGGTCGCGGGGATAATTATTTATAATCAGCAACTTAACCACAAAAACCAACGCGCGGTCGCGAGAACAAAAACCAACGCCCTGTCGCGGGCTGTGAATCGAGTATTTCAGCAAAACTACTGCAGTAAGAA”, the “relative integration efficiency (log2)” value in series [1] was below -10. “AATGTTGTTGATGCAACCATAAAATGATAATTAATAATTATTTATAATCAGCAACTTAACCACAAAATAATTATCATTTTATGGTTGACAAAACAACCATAAAATGATAATTATGTGAATCGAGTATTTCAGCAAAACTACTGCAGTAAGAA”: in series [1], the “relative integration efficiency (log2)” value is -5.2 ± 1.6.

With “AATGTTGTTGATGCAACCATAAAGTGATATTTAATAATTATTTATAATCAGCCAACCATATATTGATATCTCAACTTAACCACAAAAACAAAACAACCATAAGTTGATATTTTTGTGAATCGAGTATTTCAGCAAAACTACTGCAGTAAGAA”, the “relative integration efficiency (log2)” value in series [1] was -7.27 ± 2.4. As for “AATGTTGTTGATGCAACCATAAAGTGATATTTAATAATTACAACCATAAAGTGATATTTAACTTAACCAACCATATATTGATATCTCACAAAACAACCATAAGTTGATATTTTTGTGAATCGAGTATTTCAGCAAAACTACTGCAGTAAGAA”, in series [1], the “relative integration efficiency (log2)” value was -7.98 ± 1.5. For “ACATTTGTTGATACAACCATCAAATGATAATTACACCCATACATTGATAATTATCACACCCAATTTAACTATAACGCTCTGATCATAGTCAGACCAACATTGCTACGACCCGTATTCGCACCGACAC”, the “relative integration efficiency (log2)” value in series [2] was -2.9 ± 0.42; in series [3], -0.0308 ± 0.27. On the same counts, the results for “ACATTTGTTGATACAACCATAAAATGATAATTACACCCATAAATTGATAATTATCACACCCATAAATTGATATTGCCTCTTCATGCAGATTTGAACAGTTTCAAATGCTGATTTTCAGCACCGACAC” are 0.29 ± 0.31 and 0.372 ± 0.19.

Regarding “ACATTTGTTGATACAACCATAAAATGATAATTACACCCATAAATTGATAATTATCACACCCATAAATTGATATTGCCTCTGATCATAGTCAAACTGTATTTATATACAGTTGGACCAGCACCGACAC”, the entries for the “relative integration efficiency (log2)” value in series [2] and in series [3] were 0.00825 ± 0.2 and 0.414 ± 0.18, respectively. Take “ACATTTGTTGATACAACCATAAAATGATCATTACCCCCATAAATTGATAATTATCACACCCAATTTAACTATAACGCTCTGATCATAGTCAGACCAACATTGCTACGACCCGTATTCGCACCGACAC”: the “relative integration efficiency (log2)” value was -1.95 ± 0.25 in series [2] and 1.59 ± 0.045 in series [3]. In the same order, the values of “ACATTTGTTGATACAACCATAAAATGATAATTACACCCATAAATTTCTAATTATCACACCCATAAATTGATATTGCCTCTGATCATAGTCAGACCAACATTGCTACGACCCGTATTCGCACCGACAC” are -0.945 ± 0.17 and -0.772 ± 0.23. “ACATTTGTTGATACAACCATAAGTTGATATTTTCAACCATAAAATGATAATTATCACACCCATAAATTGATAATTACTCTGATCATAGTCAGACCAACATTGCTACGACCCGTATTCGCACCGACAC”: the “relative integration efficiency (log2)” value in series [2] was -0.162 ± 0.0022; in series [3], -0.376 ± 0.15.

As for “ACATTTGTTGATACAACCATAAAATGATAATTACAACCATAAAGTGATATTTATCACAACCATATATTGATATCTCCTCTGATCATAGTCAGACCAACATTGCTACGACCCGTATTCGCACCGACAC”, the “relative integration efficiency (log2)” value is -0.331 ± 0.17 in series [2] and -0.276 ± 0.022 in series [3]. As to “ACATTTGTTGATATGTTCAACCATAAAATGATAATTACACCCATAAATTGATAATTATCACACCCATAAATTGATATTGCCTCTGATCATAGTCAGACCAACATTGCTACGACCCGTATTCGCACCG”, the “relative integration efficiency (log2)” value was -6.34 ± 0.1 in series [2] and -7.23 ± 1.7 in series [3].

For the sequence “ACATTTGTTGATACAACCATAAAATGATAATTACACCCATAAATTGATAATTATCACACCCATAAATTGATATTGCCTCTGATCATAGTCAGCAACCATAAAATGATAATTAACCAAGCACCGACAC”, the “relative integration efficiency (log2)” value was -0.283 ± 0.15 in series [2] and -0.485 ± 0.41 in series [3]. “ACATTTGTTGATACAACCATAAAATGATAATTACTCTGATCATAGTCAGCACCCATAAATTGATAATTATCAGTGGGTATTTAACTATAACGACCAACATTGCTACGACCCGTATTCGCACCGACAC”: the “relative integration efficiency (log2)” value in series [2] is -2.61 ± 0.47; in series [3], 0.537 ± 0.24. Consider “ACATTTGTTGACAACCATAAAATGATAATTACACCCATAAATTGATAATTATCACACCCATAAATTGATATTGCCTCTGATCATAGTCAGACCAACATTGCTACGACCCGTATTCGCACCGACACTG”, for which the “relative integration efficiency (log2)” value in series [2] is -7.09 ± 0.12; in series [3], -6.81 ± 1.7.

With “ACATTTGTTGATACAACCATAAAATGATAATTAATAATTATTTACACCCATAAATTGATAATTATCAACAAACGCCCGGTCGCGGTACTCTGATCATAGTCAGACCAACATTGCTACGACCCGTATT”, the “relative integration efficiency (log2)” value was -2.54 ± 0.21 in series [2] and 0.163 ± 0.01 in series [3]. Regarding “ACATTTGTTGATACAACCATAAAAGGATAATTCACCCCTAAATTGATAATTATCACACCCACATTTAACTATAACGCTCTGATCATAGTCAGACCAACATTGCTACGACCCGTATTCGCACCGACAC”, the “relative integration efficiency (log2)” value was -4.49 ± 0.25 in series [2] and -0.705 ± 0.48 in series [3]. As to “ACATTTGTTGATACAACCCGCCAATGATAATTACACCCATAAATTGATAATTATCACACCCATAAATTGATATTGCCTCTGATCATAGTCAGACCAACATTGCTACGACCCGTATTCGCACCGACAC”, the “relative integration efficiency (log2)” value was -4.28 ± 0.2 in series [2] and -3.85 ± 0.3 in series [3]. For “ACATTTGTTGATACAACCATAAAATCATCATTACCCCCATCAATTGATAATTATCCCACCCAATTTAACTATAACGCTCTGATCATAGTCAGACCAACATTGCTACGACCCGTATTCGCACCGACAC”, the “relative integration efficiency (log2)” value was -5.47 ± 0.095 in series [2] and -1.26 ± 0.14 in series [3]. Regarding “ACATTTGTTGATACAACCATAAAATGATAATTACACCCATAAAAAGATAATTATCACACCCATAAATTGATATTGCCTCTGATCATAGTCAGACCAACATTGCTACGACCCGTATTCGCACCGACAC”, the “relative integration efficiency (log2)” value in series [2] is -0.162 ± 0.011; in series [3] it was -1.08 ± 0.96. In the same order, the values of “ACATTTGTTGATACAACCATAAAATGCGCCTTACACCCATAAATTGATAATTATCACACCCATAAATTGATATTGCCTCTGATCATAGTCAGACCAACATTGCTACGACCCGTATTCGCACCGACAC” are -1.4 ± 0.083 and -1.01 ± 0.31.
